According to paper doi:10.1101/2025.10.28.685015 (bioRxiv, 2025):
No end group written: not given here.

Biological target: T1, biotinylated ALFA-tag peptide (WT) (synthetic construct, also: biotin with double DoA linker, end not given here)
T1 chain: SRLEEELRRRLTE
Experiment: BLI

B1: ALFA nanobody (NbALFA) (VHH)
VHH: EVQLQESGGGLVQPGGSLRLSCTASGVTISALNAMAMGWYRQAPGERRVMVAAVSERGNAMYRESVQGRFTVTRDFTNKMVSLQMDNLKPEDTAVYYCHVLEDRVDSFHDYWGQGTQVTVSS
Kd: 0.165 ± 0.002 nM
